The text below walks through data of patent US20140073563A1.

In this experiment the target is human FGFR1c together with human beta-Klotho (KLB) (human), P11362. The experiment can be described thus: cell-based or functional assay.
human FGFR1c together with human beta-Klotho (KLB) (human), P11362, sequence (P11362 22-822, chain 1 of 2): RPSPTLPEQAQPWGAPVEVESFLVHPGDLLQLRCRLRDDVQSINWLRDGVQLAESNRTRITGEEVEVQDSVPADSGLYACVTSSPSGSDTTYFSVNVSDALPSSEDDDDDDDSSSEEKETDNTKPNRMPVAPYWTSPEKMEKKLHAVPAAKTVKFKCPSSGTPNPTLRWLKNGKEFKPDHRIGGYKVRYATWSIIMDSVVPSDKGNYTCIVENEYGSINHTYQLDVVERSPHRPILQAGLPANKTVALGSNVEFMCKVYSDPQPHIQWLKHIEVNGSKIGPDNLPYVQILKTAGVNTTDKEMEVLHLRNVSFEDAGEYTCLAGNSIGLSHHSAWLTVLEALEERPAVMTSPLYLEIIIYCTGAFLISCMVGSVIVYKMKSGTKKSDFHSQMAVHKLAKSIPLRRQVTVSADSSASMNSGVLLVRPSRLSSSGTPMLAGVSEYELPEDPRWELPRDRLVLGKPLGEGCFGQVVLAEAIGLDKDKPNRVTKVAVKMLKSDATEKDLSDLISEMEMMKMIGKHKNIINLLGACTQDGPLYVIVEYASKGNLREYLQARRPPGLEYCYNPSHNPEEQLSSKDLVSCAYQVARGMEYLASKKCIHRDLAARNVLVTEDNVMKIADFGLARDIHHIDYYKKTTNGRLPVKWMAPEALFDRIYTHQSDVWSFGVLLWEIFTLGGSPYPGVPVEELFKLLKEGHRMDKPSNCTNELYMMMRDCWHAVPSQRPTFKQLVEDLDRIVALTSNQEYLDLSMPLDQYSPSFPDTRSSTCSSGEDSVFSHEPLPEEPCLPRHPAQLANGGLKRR
human FGFR1c together with human beta-Klotho (KLB) (human), P11362, sequence (Q86Z14 whole entry, chain 2 of 2, further chain): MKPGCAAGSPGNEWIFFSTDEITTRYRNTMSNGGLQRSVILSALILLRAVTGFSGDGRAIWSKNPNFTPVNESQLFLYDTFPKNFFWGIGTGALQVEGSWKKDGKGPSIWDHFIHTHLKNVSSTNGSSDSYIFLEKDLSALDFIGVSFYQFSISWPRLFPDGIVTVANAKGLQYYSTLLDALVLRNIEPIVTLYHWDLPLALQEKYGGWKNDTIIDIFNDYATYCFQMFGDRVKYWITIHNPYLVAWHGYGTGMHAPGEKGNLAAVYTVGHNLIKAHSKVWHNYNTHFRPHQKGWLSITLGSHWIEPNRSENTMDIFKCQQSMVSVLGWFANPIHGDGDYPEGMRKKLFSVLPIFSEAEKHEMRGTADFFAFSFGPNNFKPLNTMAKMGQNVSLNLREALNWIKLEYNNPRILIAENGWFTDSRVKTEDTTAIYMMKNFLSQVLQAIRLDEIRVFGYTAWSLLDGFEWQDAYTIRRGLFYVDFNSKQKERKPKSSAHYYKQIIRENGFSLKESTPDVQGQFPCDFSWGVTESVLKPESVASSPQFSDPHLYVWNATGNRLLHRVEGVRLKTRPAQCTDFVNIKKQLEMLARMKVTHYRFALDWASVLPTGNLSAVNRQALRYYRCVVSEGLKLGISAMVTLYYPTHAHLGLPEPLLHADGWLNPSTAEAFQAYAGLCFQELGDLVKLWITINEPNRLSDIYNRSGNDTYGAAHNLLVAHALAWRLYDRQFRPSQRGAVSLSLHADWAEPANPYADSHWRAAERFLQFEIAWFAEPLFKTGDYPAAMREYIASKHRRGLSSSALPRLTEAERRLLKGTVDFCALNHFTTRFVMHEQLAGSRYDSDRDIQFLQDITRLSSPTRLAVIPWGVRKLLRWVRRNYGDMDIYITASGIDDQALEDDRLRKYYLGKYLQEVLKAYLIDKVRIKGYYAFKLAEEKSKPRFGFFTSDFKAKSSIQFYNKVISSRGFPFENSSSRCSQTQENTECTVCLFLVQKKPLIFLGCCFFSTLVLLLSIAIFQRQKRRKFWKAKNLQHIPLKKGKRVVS

B1: FGF21 wild type, Q9NSA1 29-209 (ligand)
chain: HPIPDSSPLLQPGGQVRQRYLYTDDAQQTEAHLEIREDGTVGGAADQSPESLLQLKALKPGVIQILGVKTSRFLCQRPDGALYGSLHFDPEACSFRELLLEDGYNVYQSEAHGLPLHLPGNKSPHRDPAPRGPARFLPLPGLPPAPPEPPGILAPQPPDVGSSDPLSMVGPSQGRSPSYAS
As for B1, the pERK ICW EC50 was 0.135 nmol/L and the pFGFR ICW EC50 was determined as 4.3 nmol/L.
